Laboratory results reported in patent US20250277051A1 (HANGZHOU UNOGEN BIOTECH, published 2025).

Tests used:
[1] = target: T1, recombinant human CD38 protein (human, UniProt P28907 43-300, biotin labeled); experiment: ELISA on recombinant human CD38, OD 450 nm
T1 construct: Biotin labeled and captured on streptavidin coated plates; also called human CD38 target

[2] = target: T2, recombinant mouse CD38 protein (mouse, UniProt P56528 45-304, limits assumed, biotin labeled); experiment: ELISA, biotinylated recombinant mouse CD38 captured on a streptavidin plate, OD 450 nm
T2 construct: also called mouse recombinant CD38 protein; mouse CD38 antigen
T2 sequence (looked up): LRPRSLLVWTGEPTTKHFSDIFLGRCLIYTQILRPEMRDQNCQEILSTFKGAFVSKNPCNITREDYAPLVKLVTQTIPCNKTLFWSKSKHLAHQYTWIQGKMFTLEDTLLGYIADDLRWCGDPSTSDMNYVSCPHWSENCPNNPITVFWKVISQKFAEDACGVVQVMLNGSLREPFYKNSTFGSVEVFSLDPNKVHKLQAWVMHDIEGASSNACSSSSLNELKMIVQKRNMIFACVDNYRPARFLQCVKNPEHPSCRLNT

[3] = target: T3, recombinant cynomolgus monkey CD38 protein (cynomolgus monkey, UniProt Q5VAN0 44-301, biotin labeled); experiment: ELISA, biotinylated recombinant cynomolgus monkey CD38 captured on a streptavidin plate, OD 450 nm
T3 construct: Biotin labeled and captured on a streptavidin coated plate; also called cynomolgus monkey CD38 antigen; cynomolgus recombinant CD38 protein

[4] = target: T1, recombinant human CD38 protein; experiment: ELISA, biotinylated recombinant human CD38 captured on a streptavidin plate, OD 450 nm
[5] = target: T1, recombinant human CD38 protein; experiment: ELISA on recombinant human CD38, OD 450 nm; remark: listed apart in the source
[6] = target: T4, recombinant cynomolgus monkey CD3 delta and epsilon domain protein (cynomolgus monkey, UniProt Q95LI5 22-117; Q95LI8 22-105, biotin labeled); experiment: ELISA, recombinant antigen on plate
T4 construct: Biotin labeled and captured on a streptavidin coated ELISA plate; also called cynomolgus monkey recombinant CD3 protein, consisting of CD3 epsilon and CD3 delta chains
T4 sequence (Q95LI5 22-117, stated change not applied, chain 1 of 2): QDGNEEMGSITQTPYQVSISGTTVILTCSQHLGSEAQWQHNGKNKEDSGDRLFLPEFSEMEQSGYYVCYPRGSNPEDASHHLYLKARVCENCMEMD
T4 sequence (Q95LI8 22-105, stated change not applied, chain 2 of 2): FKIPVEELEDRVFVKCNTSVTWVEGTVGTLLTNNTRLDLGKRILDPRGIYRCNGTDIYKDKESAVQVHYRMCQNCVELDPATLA

[7] = target: T5, recombinant human CD3 delta and epsilon domain protein (human, UniProt P07766 23-126; P04234 22-105, biotin labeled); experiment: ELISA, biotinylated recombinant human CD3 epsilon/delta captured on a streptavidin plate, OD 450 nm
T5 construct: Biotin labeled and captured on a streptavidin coated ELISA plate; also called human recombinant CD3 protein, consisting of CD3 epsilon and CD3 delta chains
T5 sequence (P07766 23-126, stated change not applied, chain 1 of 2): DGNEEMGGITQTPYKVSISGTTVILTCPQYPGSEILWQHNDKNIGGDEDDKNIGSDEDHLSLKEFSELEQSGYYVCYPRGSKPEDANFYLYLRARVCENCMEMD
T5 sequence (P04234 22-105, stated change not applied, chain 2 of 2): as the sequence (Q95LI8 22-105, stated change not applied, chain 2 of 2) above, with V5I, K15N, V20I, T32S, N33D, N34I, A64T, N74S, L83V counted along it

[8] = target: T4, recombinant cynomolgus monkey CD3 delta …; experiment: ELISA, biotinylated recombinant cynomolgus monkey CD3 epsilon/delta captured on a streptavidin plate, OD 450 nm

B1: SEQ ID NO 29 (VHH)
VHH: DVQLQESGGGSVQAGGSLTLSCTASGWLFRLASMGWYRQAPGKEREMIAVITTGGRTNYKDSVQGRFIITRDNTKSTVTLQMNRLKPEDTAVYYCNTSMPVVGADEWGQGTRVTVSS
notes: VHO single domain; also called CD38 5F21 VHO5
Q: Does B1 bind [1]?
A: binds

B2: SEQ ID NO 5 (VHH)
VHH: EVQLQESGGGLVQAGGSLRLSCTGSGRTFRNYPMAWFRQAPGKEREFVAGITWVGASTLYADFAKGRFTISRDNAKNTVYLQMNSLKPEDTAVYSCAAGRGIVAGRIPAEYADWGQGTQVTVSS
notes: also called CD38 5F1K VHO1
Q: Does B2 bind [2]?
A: no binding (tested: about 60 nM)

Q: Does B2 bind [3]?
A: binds

Q: Does B2 bind [4]?
A: binds

B3: SEQ ID NO 24 (VHH)
VHH: DVQLQESGGGLVQAGGSLRLSCTGSGRTFYLYPMAWFRQAPGKEREFVAGITWVGASTNYADFAKGRFTISRDNAKNTVYLQMNSLKPEDTAVYSCAAGRGITAGRIPAEYADWGQGTQVTVSS
notes: VHO single domain; also called CD38 5FIOK VHO5
Q: Does B3 bind [5]?
A: binds

B4: SEQ ID NO 17 (VHH)
VHH: QVQLVQSGAEVKKPGASVKVSCKASGSRFDNYAMGWFRQAPGQEREFMGAISWSSGTTRYAQKVQGRVTMTRDTSTSTVYMELSSLRSEDTAVYYCAARYQPRYYDSGDMDGYEYDNWGQGTLVTVSS
notes: VHO single domain; also called CD38 5FIO VHO2
Q: Does B4 bind [5]?
A: binds

B5: SEQ ID NO 6 (VHH)
VHH: EVQLQESGGGSVQAGGSLTLSCTASGLLFRLASMGWYRQAPGKERELIATITVGGKTNYKDSVQGRFIITRDNTGDNTKSTVTLQMNRLKPEDTAVYYCNTASPAVGADTWGQGTRVTVSS
notes: also called CD38 5F21 VHO1
Q: Does B5 bind [2]?
A: no binding (tested: about 60 nM)

Q: Does B5 bind [3]?
A: no binding (tested: about 30 nM)

Q: Does B5 bind [4]?
A: binds

B6: SEQ ID NO 4 (VHH)
VHH: EVQLQESGGGLVQAGHSLRLSCVGSGSRFDNYAMGWFRQAPGKEREFVAAISWSSGTTRYLDTVKGRFTISRDNAKSTVYLQMNSLKPEDTAVYYCAARYQPRYYDSGDMDGYEYDNWGQGTQVTVSS
notes: Variable-heavy-only (VHO) single domain; also called CD38 5FIO VHO1
Q: What does the source list for B6?
A: binding result [2]: binds; EC50 (read off the curve) [3]: ~0.4 nM; binding result [4]: binds

B7: SEQ ID NO 20 (VHH)
VHH: DVQLQESGGGLVQAGHSLRLSCVGSGDRFDNYAMGWFRQAPGKEREFVAAISWSSGTTRYLDTVKGRFTISRDNAKSTVYLQMNSLKPEDTAVYYCAARYQNRFYDSGDMDGYEYDNWGQGTQVTVSS
notes: VHO single domain; also called CD38 5FIO VHO5
Q: Does B7 bind [5]?
A: binds

B8: SEQ ID NO: 4×SP34 v8 (bispecific antibody, V domains shown)
VHH: EVQLQESGGGLVQAGHSLRLSCVGSGSRFDNYAMGWFRQAPGKEREFVAAISWSSGTTRYLDTVKGRFTISRDNAKSTVYLQMNSLKPEDTAVYYCAARYQPRYYDSGDMDGYEYDNWGQGTQVTVSS
VH: EVQLVESGGGLVQPGGSLKLSCAASGFTFNTYAMNWVRQAPGKGLEWVARIRSKYNNYATYYADSVKDRFTISRDDSKNTAYLQMNNLKTEDTAVYYCVRHGNFGNSYVAWFAYWGQGTLVTVSS
VL: QTVVTQEPSLTVSPGGTVTLTCRSSTGAVTTSNYANWVQQKPGQAPRGLIGGTNKRAPGTPARFSGSLLGGKAALTLSGVQPEDEAEYYCALWYSNLWVFGGGTKLTVL
notes: CD38 VHO arm paired with a CD3 arm
Q: Which “EC50 (read off the curve)” value [4] does the source give for B8 here?
A: ~0.1 nM

B9: SEQ ID NO 21 (VHH)
VHH: QMQLVQSGAEVKKTGSSVKVSCKGSGRTFRNYPMAWFRQAPGQEREFMGGITWVGASTLYAQKAQDRVTITRDRSMSTAYMELSSLRSEDTAMYSCAAGRGIVAGRIPAEYADWGQGTLVTVSS
notes: VHO single domain; also called CD38 5FIOK VHO2
Q: Does B9 bind [5]?
A: binds

B10: SEQ ID NO 18 (VHH)
VHH: QVTLKESGPVLVKPTETLTLTCTGSGSRFDNYAMGWFRQPPGKEREFLAAISWSSGTTRYSTSLKSRLTISRDTSKSQVVLTMTNMDPVDTATYYCAARYQPRYYDSGDMDGYEYDNWGQGTLVTVSS
notes: VHO single domain; also called CD38 5FIO VHO3
Q: Does B10 bind [5]?
A: binds

B11: SEQ ID NOs: 2 and 3 (mAb) (antibody, V domains shown)
VH: QVQLVQSGAEVAKPGTSVKLSCKASGYTFTDYWMQWVKQRPGQGLEWIGTIYPGDGDTGYAQKFQGKATLTADKSSKTVYMHLSSLASEDSAVYYCARGDYYGSNSLDYWGQGTSVTVSS
VL: DIVMTQSHLSMSTSLGDPVSITCKASQDVSTVVAWYQQKPGQSPRRLIYSASYRYIGVPDRFTGSGAGTDFTFTISSVQAEDLAVYYCQQHYSPPYTFGGGTKLEIK
notes: also called CD38 LC1; CD38 HC1
Q: Does B11 bind [2]?
A: no binding (tested: about 60 nM)

B12: SP34 (antibody, V domains shown)
VH: EVQLVESGGGLVQPGGSLKLSCAASGFTFNTYAMNWVRQAPGKGLEWVARIRSKYNNYATYYADSVKDRFTISRDDSKNTAYLQMNNLKTEDTAVYYCVRHGNFGNSYVSWFAYWGQGTLVTVSS
VL: QTVVTQEPSLTVSPGGTVTLTCRSSTGAVTTSNYANWVQQKPGQAPRGLIGGTNKRAPGTPARFSGSLLGGKAALTLSGVQPEDEAEYYCALWYSNLWVFGGGTKLTVL
notes: also called positive control anti-CD3 antibody
Q: Does B12 bind [6]?
A: binds

B13: SP34 v8 (antibody, V domains shown)
VH: EVQLVESGGGLVQPGGSLKLSCAASGFTFNTYAMNWVRQAPGKGLEWVARIRSKYNNYATYYADSVKDRFTISRDDSKNTAYLQMNNLKTEDTAVYYCVRHGNFGNSYVAWFAYWGQGTLVTVSS
VL: QTVVTQEPSLTVSPGGTVTLTCRSSTGAVTTSNYANWVQQKPGQAPRGLIGGTNKRAPGTPARFSGSLLGGKAALTLSGVQPEDEAEYYCALWYSNLWVFGGGTKLTVL
notes: also called SP34 v8 LC; SP34 v8 HC
Q: Does B13 bind [7]?
A: binds

Q: And the “EC50 (read off the curve)” value [8]?
A: ~0.08 nM
